The target in one series is HU-A (UniProt P0ACF0 1-90, F79W). The series is described as follows: EMSA. In general terms: Mobility shift assays separate free from complexed probe on a gel.
The target in a further series is T1, HU-B (UniProt P0ACF4 1-90, F47W).
T1 sequence: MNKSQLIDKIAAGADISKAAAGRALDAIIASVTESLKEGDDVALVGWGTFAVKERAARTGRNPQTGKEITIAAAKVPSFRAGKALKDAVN
The series is described as follows: EMSA.

The series “SEC” concerns the molecule itself. The series is described as follows: SEC. On the technique in general: Size exclusion chromatography separates by hydrodynamic size, large species first.

For orientation: stoichiometry N means the number of molecules, sites or subunits per partner or assembly.

B1: 4WJ DNA (four-way junction, cruciform) (structured_DNA)
DNA 1: CCCTATAACCCCTGCATTGAATTCCAGTCTGATAA
DNA 2: GTAGTCGTGATAGGTGCAGGGGTTATAGGG
DNA 3: AACAGTAGCTCTTATTCGAGCTCGCGCCCTATCACGACTA
DNA 4: TTTATCAGACTGGAATTCAAGCGCGAGCTCGAATAAGAGCTACTGT
On to B1, for which the binding result with HU-A and with HU-B was “binds” in each case.

B2: HU-A (F79W mutant of HU-A) (natural protein, E. coli)
chain: MNKTQLIDVIAEKAELSKTQAKAALESTLAAITESLKEGDAVQLVGFGTFKVNHRAERTGRNPQTGKEIKIAAANVPAWVSGKALKDAVK
With B2, in “SEC”, the “stoichiometry N” value is 2.

For the origin of these results see doi:10.1101/2022.06.23.497280 (bioRxiv, 2022).
